This note sets out measurements from patent US20190255093A1.

Assay [1] addresses murine proMyostatin (mouse) (UniProt O08689). Nature of the assay: method not stated.
Assay [2] addresses latent myostatin in serum and muscle of mice (mouse) (UniProt O08689). Nature of the assay: cell-based or functional assay.

For SRK-015 (antibody), in assay [1], the dissociation constant Kd was found to be 8.35 nM.

In turn, muSRK-015 (antibody) displayed a Kd in assay [1] of 2.57 nM.

In the case of muSRK-015P (antibody), in assay [1], the dissociation constant (Kd) amounted to 2.88 nM. Besides, in assay [2], the latent myostatin signal in muscle (fluorescent western blot, normalized to total protein, compared to WT mice) stood at 3 fold.

Usually Kd stands for the free concentration of one partner at which half of the binding sites on the other are occupied at equilibrium, for simple one-to-one binding. Read a high Kd as a looser complex.
